Type in all cases: cell-based
One assay deals with gene editing with dCas9. Briefly: Screen of 322 new SSAP proteins, gene editing activity with dCas9 (Table 5). Set-up: dCas9 with SSAP activity: scale not given here. The procedure, abridged: (§1)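 Sequence-mined SSAPs (n=322), synthesized; editing activity screened with Cas9 or dCas9.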
The subject of the next assay is gene editing with Cas9. Briefly: Screen of 322 new SSAP proteins, gene editing activity with Cas9 (Table 5). Set-up: Cas9 with SSAP activity: scale not given here. The procedure, abridged:
as §1

The subject of assay [1] is gene editing with Cas9 and dCas9. Briefly: Screen of 322 new SSAP proteins, activity across all experiments (Cas9 and dCas9, Table 5). Set-up: scale not given here. The procedure, abridged: as §1

B1: SSAP_279: SEQ ID NO: 448; Dorea sp. 42_8 (protein, listed as Dorea sp.)
chain: AVNNSLAKRDQSMKLSVYLQNDAVKKQINQVVGGKNGTRFISSIVSAVQSTPALQECTSPSIVNAALLGEALNLSPSPQLGQFYMVPFDNRKKGCKEAQFQLGYKGYIQLAERSGYYKKLNVLAIKEGELIRYDPLDEEIEVELIDDDVIREETPAMGYYAMFEYENGFCIQQKWRSEDFGTFRAGQNSGKGSLEVFFFLVQRF
With B1, in the assay with gene editing with dCas9, the “dCas9 with SSAP activity” value is listed as −10.362 and the “dCas9 with SSAP activity (normalized)” value is −2.349. Further, in the assay with gene editing with Cas9, the “Cas9 with SSAP activity” value is reported as −2.825 and the “Cas9 with SSAP activity (normalized)” value is reported as −3.398. Besides, in assay [1], the “Activity across all experiments” value is −6.593.

B2: SSAP_114: SEQ ID NO: 283; Methylomonas rhizoryzae (protein, listed as Methylomonas rhizoryzae)
chain: SELLSALNAPETQKPQTLPAMLKQHQPRFKAIAPRDVDVTRFSAALMADVRSNQKLAECNPMTVLGAFIRSTQLGLEPGSQLGQAYFVPFKGECQLVIGYRGMIELAYRSGKVASISARTVYENDVFEWELGTDERITHKPATGDRGALVAVYAMAKLTTGGIHFEVLDLAEIEKAKRASKSSSFGPWKDHFEEMAKKTAIRRLFKYLPVGTDLTRAVALDEKAESGSQQNDIEAETVLDGEFYPAGGGNDG
With B2, the “dCas9 with SSAP activity” value in the assay with gene editing with dCas9 is −10.925. In the assay with gene editing with Cas9, the “Cas9 with SSAP activity” value is −7.755 and the “Cas9 with SSAP activity (normalized)” value is recorded as −1.412. The “Activity across all experiments” value in assay [1] is −9.340.

B3: SSAP_269: SEQ ID NO: 438; Candidatus Parcubacteria bacterium (protein)
chain: TEYKRPQQPEQTKMLSAKLNQAGAPNKVSSFDVQLRDWFKKHSRKMQTLAGSKEEANKIITSLIFVAQRNPKLMTCTMESIGECLMQSAQLKLYPGPLQECAYVPFGNRATFMPQYQGLCKLAYNSGVVRSIATEVVYANDLFEFELGTNAYLRHVPTLSDNRGERIAAWCVVKTTHGEVIIVKPISFIEGIRKRSPAGNKKDSPWNTSDDDYDAMARKTVLKQALKTIPKSSDLAAAIQVDNAVESGSVDNVVTHIEPVTDPTPEETKE
modifications: Candidatus Parcubacteria bacterium
On to B3, for which the “dCas9 with SSAP activity” value in the assay on gene editing with dCas9 is −9.789. For the same molecule, in the assay with gene editing with Cas9, the “Cas9 with SSAP activity” value is reported as −7.746 and the “Cas9 with SSAP activity (normalized)” value is −2.190. The “Activity across all experiments” value in assay [1] is on record as −8.768.

B4: SSAP_77: SEQ ID NO: 246 (protein)
chain: TNNQLVEAKGDFLTNPQLLNSGIIRKYLDPQGKASDEELAYFIAQAKAQNLNPFTKEIYFIKYGTQPAQIVTAKSAFEKKADSHPQFDGKEAGVIYLLDGEIKYSKGAFIPKGAEILGGWAKVYRKDRTYPTETEVSFEEYDNSKIRARVKELTQQGKDVTYPVMNSYGKPIGENNWDTMPCVMIRKVALVSAYREAFPAELGASYEADEIQLDNTPKDITPQENREDVIARKMAQIEQFNKEQAHTDPEPTQTEEPIQGELLDGELEY
On to B4, for which, in the assay on gene editing with dCas9, the “dCas9 with SSAP activity” value is on record as −10.167. Besides, the “Cas9 with SSAP activity” value in the assay with gene editing with Cas9 was −10.167. Also, the “Activity across all experiments” value in assay [1] is reported as −10.167.

B5: SSAP_241: SEQ ID NO: 410; Antribacter gilvus (protein, listed as Antribacter gilvus)
chain: SADVVIRQHATELTSVLPSHLAEKGDGWLNAAVAAVRKDRNLWNAANSDPGAVMNALAEAARLGLQPGSKEYYLTVRGGKVLGIVGYQGEIELMYRAGAVSSVIVEPVFERDGFEYTPGVDDRPKHRIDWDADDRGPIRLAYAYAVMKDGAVSKVVVVNKTRIRRAKDASATAGKSHSPWTSDEVAMWMKTAAHDLAKWVPTSAEYIREQLRAVKEVEAEPARASDPRPEPVHIVEAQILDEDPFPNAPEDGAA
Turning to B5, in the assay on gene editing with dCas9, the “dCas9 with SSAP activity” value is reported as −9.530 and the “dCas9 with SSAP activity (normalized)” value is reported as −2.720. In addition, in the assay with gene editing with Cas9, the “Cas9 with SSAP activity” value is on record as −0.640 and the “Cas9 with SSAP activity (normalized)” value is −3.561. In addition, the “Activity across all experiments” value in assay [1] was −5.085.

B6: SSAP_187: SEQ ID NO: 356; Staphylococcus warneri (protein, listed as Staphylococcus warneri)
chain: ATQNDFKNQITDKKENKPQQSTNPRQVASDLLERMKPEIAKALPAHMSQDRMTRIALSAVNSNPKLSEVILNNPTSFLGALMQSAQLGLEPNTNLGHAYLIPYGNIVQLQLGYLGLLELAYRSGKYQKIMAMPVYKDDFFEYQYGTDEKLNHIPAQQQTGDAVGYYAFYKLTNGGTHFVYWSRQKMNMHQQQYSKGGNVWRNNFDAMALKTVIKDVLKYAPKSIEMGEAVTSDNNNFDFKDGGDIIDVTDYETEEN
Regarding B6, in the assay on gene editing with dCas9, the “dCas9 with SSAP activity” value is given as −0.498 and the “dCas9 with SSAP activity (normalized)” value is −0.164. Also, in the assay with gene editing with Cas9, the “Cas9 with SSAP activity” value is on record as 0.257 and the “Cas9 with SSAP activity (normalized)” value is recorded as 0.239. Further, in assay [1], the “Activity across all experiments” value is −0.120.

B7: SSAP_66: SEQ ID NO: 235 (protein)
chain: TNQLAHKDFFNTPAVKQKFQEVLNGNERQFTASLLSIVNNNKLLARASNTSIMTAAMKAAVLNLPIEPSLGFAYIVPYGQDAQFQLGYKGLIQLAIRSGQFKAINSGKVYKAQFKSYDPLFETLDIDFTQPEDEVYGYFATFELVNGFKKLTFWTKEQAESHGKRFSKTYAKGPWSTDFDAMAQKTVLKSILSKYAPLSTEMQEGLISDNQTEEVETDPIDVTPKNEDTQTLLSDLMSDEAESETEKV
Turning to B7, in the assay with gene editing with dCas9, the “dCas9 with SSAP activity” value is recorded as −0.205 and the “dCas9 with SSAP activity (normalized)” value is reported as −0.040. In the assay with gene editing with Cas9, the “Cas9 with SSAP activity” value turned out to be 0.370 and the “Cas9 with SSAP activity (normalized)” value was found to be 0.407. For the same molecule, in assay [1], the “Activity across all experiments” value was determined as 0.082.

B8: SSAP_91: SEQ ID NO: 260; Proteus mirabilis (protein, listed as Proteus mirabilis)
chain: SNPPLAQADLQKTQGTEVKTKTKDQQLIHFINQPSMKTQLAAALPRHMTPDRMIRIVTTEIRKTPALANCDMQSFIGAVVQCSQLGLEPGNALGHAYLLPFGNGKAKSGQSNVQLIIGYRGMIDLARRSNQIISISARTVRQGDSFHFEYGLNENLTHVPGENEDSPITHVYAVARLKDGGVQFEVMTHNQIEKVRASSKAGQNGPWVSHWEEMAKKTVIRRLFKYLPVSIEMQKAVILDEKAEANVDQENASVFEGEFEEVGSNGN
Consider B8, for which, in the assay on gene editing with dCas9, the “dCas9 with SSAP activity” value is given as −0.407 and the “dCas9 with SSAP activity (normalized)” value was −0.170. For the same molecule, in the assay with gene editing with Cas9, the “Cas9 with SSAP activity” value is on record as 0.635 and the “Cas9 with SSAP activity (normalized)” value was 0.826. The “Activity across all experiments” value in assay [1] is reported as 0.114.

B9: SSAP_233: SEQ ID NO: 402; Actinoplanes italicus (protein, listed as Actinoplanes italicus)
chain: PETIANAVAQRDQSPTALVADYRNDFAAVLPSHLPPATFVRLAQGVLRRDQNLMRTAMNNPGSLMTAMLDCARLGHEPGTPAYYFVPIKGAIEGWEGYRGVIERIYRAGAVQSVRAEVVRENDFYEYEEGMPHPIHRYERFASPEQRGPLLGVWAYAVMLDGGMSRPVEMGREEVLAHRDMNPSNNRSDSPWKKWERSMWLKCAVHELEKWVPSSTEYRREIARMSAPQPAAAAAPVTYVPPQVGQRDAIEGEVAEDWPEPAEVPGGAQ
In the case of B9, in the assay on gene editing with dCas9, the “dCas9 with SSAP activity” value is −0.220 and the “dCas9 with SSAP activity (normalized)” value is given as −0.063. In addition, in the assay with gene editing with Cas9, the “Cas9 with SSAP activity” value was −2.628 and the “Cas9 with SSAP activity (normalized)” value is −0.424. Further, the “Activity across all experiments” value in assay [1] is given as −1.424.

The values above are taken from US20250034594A1, “RNA-GUIDED GENOME RECOMBINEERING AT KILOBASE SCALE” (THE BOARD OF TRUSTEES OF THE LELAND STANFORD JUNIOR …, priority 2021, published 2025).
